What was measured:
[1] = system: H3 peptide (aa10-35) K18ac
[2] = system: nucleosome arrays containing the rH3 K18 acetyl-lysine analogue
[3] = system: nucleosome arrays containing unmodified rH3
[4] = system: rH3 K18 acetyl-lysine analogue
[5] = system: rH3 K27 dimethyl-lysine analogue
[6] = system: rH3 K27 monomethyl-lysine analogue
[7] = system: rH3 K27 trimethyl-lysine analogue
[8] = system: rH3 K36 dimethyl-lysine analogue
[9] = system: rH3 K36 monomethyl-lysine analogue
[10] = system: rH3 K36 trimethyl-lysine analogue
[11] = system: rH3 K4 dimethyl-lysine analogue
[12] = system: rH3 K4 monomethyl-lysine analogue
[13] = system: rH3 K4 trimethyl-lysine analogue
[14] = system: rH3 K9 dimethyl-lysine analogue
[15] = system: rH3 K9 monomethyl-lysine analogue
[16] = system: rH3 K9 trimethyl-lysine analogue
[17] = system: recombinant histone H3, wild type
[18] = system: reconstituted native nucleosome arrays (modified native histones purified from HeLa cells)

Chain of recombinant MMP-9 (aa115-730) (chain, as listed by the source): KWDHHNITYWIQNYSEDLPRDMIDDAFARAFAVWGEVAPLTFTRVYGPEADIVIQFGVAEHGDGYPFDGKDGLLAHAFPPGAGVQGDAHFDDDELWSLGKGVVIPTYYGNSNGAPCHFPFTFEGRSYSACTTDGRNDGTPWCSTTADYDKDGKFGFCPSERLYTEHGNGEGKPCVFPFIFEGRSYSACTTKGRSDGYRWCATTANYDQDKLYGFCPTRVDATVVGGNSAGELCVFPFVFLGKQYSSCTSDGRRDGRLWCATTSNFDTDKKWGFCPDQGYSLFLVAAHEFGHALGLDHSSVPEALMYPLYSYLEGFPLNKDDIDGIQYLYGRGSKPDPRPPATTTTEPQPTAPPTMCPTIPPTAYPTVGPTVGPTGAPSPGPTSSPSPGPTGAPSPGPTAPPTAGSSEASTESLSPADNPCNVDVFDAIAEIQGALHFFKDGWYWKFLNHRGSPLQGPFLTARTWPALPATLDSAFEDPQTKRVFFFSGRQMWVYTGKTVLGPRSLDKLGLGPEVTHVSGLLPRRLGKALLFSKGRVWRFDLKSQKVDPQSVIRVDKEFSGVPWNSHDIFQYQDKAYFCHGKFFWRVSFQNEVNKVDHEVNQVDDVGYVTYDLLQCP

| Substance | cleaved H3 (peptide hydrolysis measured with fluorescamine; kinetic analysis), against unmodified H3 or H3K27me1 peptides [1] | H3NT cleavage (in vitro H3NT cleavage assay) [2] | rMMP-9 protease activity (in vitro H3NT cleavage assay) [3] | H3NT proteolysis (in vitro H3NT cleavage assay) [4] | MMP-9 activity (in vitro H3NT cleavage assay) [5] | MMP-9 activity (in vitro H3NT cleavage assay) [6] | MMP-9 activity (in vitro H3NT cleavage assay) [7] | MMP-9 activity (in vitro H3NT cleavage assay) [8] | MMP-9 activity (in vitro H3NT cleavage assay) [9] | MMP-9 activity (in vitro H3NT cleavage assay) [10] | MMP-9 activity (in vitro H3NT cleavage assay) [11] | MMP-9 activity (in vitro H3NT cleavage assay) [12] | MMP-9 activity (in vitro H3NT cleavage assay) [13] | MMP-9 activity (in vitro H3NT cleavage assay) [14] | MMP-9 activity (in vitro H3NT cleavage assay) [15] | MMP-9 activity (in vitro H3NT cleavage assay) [16] | H3NT protease activity (in vitro H3NT cleavage assay, Western blot with the H3CT antibody) [17] | rMMP-9 protease activity (in vitro H3NT cleavage assay) [18] |
| --- | --- | --- | --- | --- | --- | --- | --- | --- | --- | --- | --- | --- | --- | --- | --- | --- | --- | --- |
| recombinant MMP-9 (aa115-730) | 3-fold increase of cleaved H3 compared to unmodified H3 or H3K27me1 peptides | the specific acetylation of H3K18 was both necessary and sufficient for H3NT cleavage by rMMP-9 in a nucleosome array context | completely resistant to rMMP-9 protease activity | the specific acetylation of K18 robustly increased H3NT proteolysis by rMMP-9 | nearly identical to rH3 control in all cases | nearly identical to rH3 control in all cases | nearly identical to rH3 control in all cases | nearly identical to rH3 control in all cases | nearly identical to rH3 control in all cases | nearly identical to rH3 control in all cases | nearly identical to rH3 control in all cases | nearly identical to rH3 control in all cases | nearly identical to rH3 control in all cases | nearly identical to rH3 control in all cases | nearly identical to rH3 control in all cases | nearly identical to rH3 control in all cases | only rMMP-9 possessed H3NT protease activity | rMMP-9 displayed robust activity for modified native nucleosome arrays |
| recombinant USP14 | – | – | – | – | – | – | – | – | – | – | – | – | – | – | – | – | only rMMP-9 possessed H3NT protease activity | – |

— patent publication US20170269069
